# Experimental data from patent publication US20070184522A1, “Cell death modulation via antagonists of Fasl and Fas activation” (University of Pittsburgh of the Commonwealth System of …, priority 2004, published 2007).
# Entries after “also recorded” stand apart in the source; their conditions may differ.
# B1: alpha subunit of Met (AlphaMet), amino acid residues 1 to 306, His-tagged (receptor, mouse)
# chain: MKAPTVLAPGILVLLLSLVQRSHGECKEALVKSEMNVNMKYQLPNFTAETPIQNVVLHGHHIYLGATNYIYVLNDKDLQKVSEFKTGPVLEHPDCLPCRDCSSKANSSGGVWKDNINMALLVDTYYDDQLISCGSVNRGTCQRHVLPPDNSADIQSEVHCMFSPEEESGQCPDCVVSALGAKVLLSEKDRFINFFVGNTINSSYPPGYSLHSISVRRLKETQDGFKFLTDQSYIDVLPEFLDSYPIKYIHAFESNHFIYFLTVQKETLDAQTFHTRIIRFCSVDSGLHSYMEMPLECILTEKRRKRHHHHHH
# Experiments:
# [1] = target: endogenous Fas of Jurkat cells (human) (UniProt P25445); test: cell-based or functional assay
# [2] = target: T1, Fas trimerization in Jurkat cells (Homo sapiens, UniProt P25445); test: Chemical crosslinking (DTSSP) and Western blot of Fas trimerization in Jurkat cells; format: cell-based; conditions: Fas Ligand 2 μg/ml, DTSSP
# T1 construct: endogenous in cells; host or cells: Jurkat
# T1 sequence (P25445 26-335): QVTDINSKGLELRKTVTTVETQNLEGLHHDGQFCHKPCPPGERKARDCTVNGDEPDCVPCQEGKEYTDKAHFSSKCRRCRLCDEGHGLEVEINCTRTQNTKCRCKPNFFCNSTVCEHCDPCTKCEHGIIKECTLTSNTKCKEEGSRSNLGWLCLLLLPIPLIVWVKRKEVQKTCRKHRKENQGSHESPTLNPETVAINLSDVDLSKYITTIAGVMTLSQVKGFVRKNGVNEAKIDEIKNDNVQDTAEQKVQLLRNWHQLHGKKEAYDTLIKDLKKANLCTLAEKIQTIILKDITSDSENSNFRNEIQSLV
# Protocol: FIG. 3a presents data collected from Jurkat cells (1×10^6) treated with 2 μg/ml of Fas Ligand with or without AlphaMet for 30 minutes on ice. Cells were washed with PBS twice and then incubated with 2 mM of DTSSP in PBS for 30 minutes. The crosslinking process was stopped by 20 mM of Tris (pH 7.5) for another 30 minutes. Cells were spun down and washed with PBS twice and lyzed in RIPA buffer. Cell lysates were subjected to SDS-PAGE under non-reducing or reducing conditions (FIG. 3b) and Western blot analysis using the mouse monoclonal antibody against human Fas. FIG. 3c depicts the quantification of the data in FIG. 3a by densitometry. The data are the mean and SE from three different independent crosslinking and Western blot experiments. […] Frame A: Acceptor CFP-Fas image; Frame B: Acceptor pre-bleach CFP-Fas image; Frame C: Acceptor post-bleach image. Frame D: Donor YFP-Fas image; Frame E: Donor pre-bleach image; Frame F: […]. The CFP-Fas strength in the selected region obtained a gain of 19.3% efficiency in the presence of FasL for 15 minutes. No FRET was observed without FasL. […] FIG. 3e depicts the results of experiments in which CFP-tagged Fas or CFP control vector were transiently expressed in Hepa 1-6 Cells (3×10^5). […] Cells were fixed and analyzed by fluorescence microscopy. […]
# Fas-Fc / FasL binding = target: T2, Fas-Fc / FasL binding (Mus musculus, UniProt P25446); test: Competition pull down with Fas-Fc, recombinant AlphaMet and recombinant FasL
# T2 construct: purchased R&D
# T2 sequence (P25446 22-169 limits assumed): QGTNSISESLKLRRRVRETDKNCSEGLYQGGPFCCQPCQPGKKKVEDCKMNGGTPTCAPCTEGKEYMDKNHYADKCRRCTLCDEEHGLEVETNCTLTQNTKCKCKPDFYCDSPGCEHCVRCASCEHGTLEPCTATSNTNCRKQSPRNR
# Protocol: This antibody also recognizes Fas-Fc which is also tagged at the C-terminus by His. In FIG. 2b, a fixed amount of purified recombinant Fas-ligand was added to Fas-Fc in the absence or presence of increasing amounts of AlphaMet as indicated. Samples were subjected to pull down using proteinA agarose followed by Western blot using a polyclonal rabbit anti-FasL antibody. […] Fas ligand (1 μg/ml) was coated in the wells of a microtiter plate (triplicate wells) then 1 μg/ml of Fas-Fc was added in the absence or presence of an increasing amount of the indicated polypeptide. A 13 mer YLGA polypeptide derived from FasL also was synthesized and used. The control peptide was a scrambled 13 mer. Anti human […] conjugates were used to detect the bound Fas-Fc. […] One-way ANOVA was carried out for determination of statistical significance. […] Cells (3×10^5) were plated in 24-well plates having Poly-L-Lysine pre-treated cover glass. 2 μg/ml of Fas ligand was added and the cells were incubated for 30 min on ice. Cells were then washed by PBS twice, and were subjected to immunostaining using anti-Fas ligand antibody and fluorescent microscopy. In Frame A, Fas ligand was not added, in B, only Fas ligand was added, in C-F, Fas ligand was added with different polypeptides as follows: AlphaMet, 12 mer YLGA, control peptide, and YLGA mutated AlphaMet, respectively. […]
# [3] = system: Fas self-assembly in Hepa 1-6 cells; test: FRET assay of CFP-Fas/YFP-Fas in transfected Hepa 1-6 cells; format: cell-based; conditions: Hepa 1-6 cells, CFP-Fas and YFP-Fas, FasL with AlphaMet
# Protocol: FIG. 3a presents data collected from Jurkat cells (1×10^6) treated with 2 μg/ml of Fas Ligand with or without AlphaMet for 30 minutes on ice. Cells were washed with PBS twice and then incubated with 2 mM of DTSSP in PBS for 30 minutes. The crosslinking process was stopped by 20 mM of Tris (pH 7.5) for another 30 minutes. Cells were spun down and washed with PBS twice and lyzed in RIPA buffer. Cell lysates were subjected to SDS-PAGE under non-reducing or reducing conditions (FIG. 3b) and Western blot analysis using the mouse monoclonal antibody against human Fas. FIG. 3c depicts the quantification of the data in FIG. 3a by densitometry. The data are the mean and SE from three different independent crosslinking and Western blot experiments. […] Frame A: Acceptor CFP-Fas image; Frame B: Acceptor pre-bleach CFP-Fas image; Frame C: Acceptor post-bleach image. Frame D: Donor YFP-Fas image; Frame E: Donor pre-bleach image; Frame F: Donor pre-bleach image. […] Cells were fixed and analyzed by fluorescence microscopy. […]
# FRET assay. […] Fret efficiency (E) was calculated as FRETeff=(Dpost−Dpre)/Dpost (Dpost and Dpre are the mean emission intensity […] YFP bleaching).
# Fluorescence protein tagged Fas molecules and Hepa 1-6 cells were used for these experiments. […] In these experiments the percent of Fas capping was also determined.
molecule,measurement,setting,value
B1,death rate of Jurkat cells treated with Fas-ligand (Trypan Blue),[1],12%
same,"sub-G1 population of Jurkat cells treated with Fas-ligand (Propidium Iodide, flow cytometry)",[1],8%
same,Fas trimerization,[2],reduced the Fas trimerization to the background level
same,FasL binding to Fas in pull down,"Fas-Fc / FasL binding; fixed FasL, increasing amounts of AlphaMet",blocked the FasL binding to Fas
same,binding of AlphaMet to Fas in presence of FasL,Fas-Fc / FasL binding; increasing amounts of FasL,completely abrogated by increasing amounts of FasL
same,FasL-induced FRET,[3],no significant FRET could be detected; also recorded: inhibited the FasL-induced FRET phenomenon
